Experimental data as given in patent US20040214258A1.

Biological target: hR.Luc-connector-DhaA.H272F-Flag fusion protein with covalently bound biotin-C18H32O4-Cl substrate (Rhodococcus rhodochrous) (UniProt P0A3G2)
Assay: capture on SA-coated 96-well plate through tethered biotin; captured luciferase activity measured

With “streptavidin (SA) coated on a solid support (from UniProt P22629 37-163)” the efficiency of capturing (% of Renilla luciferase activity added to the plate) was over 50%.
